For the assay, the target named is T1, recombinant CD16A ectodomain (human, UniProt P08637 17-208).
T1 construct: extracellular domain
Nature of the assay: ELISA, CD16A ectodomain coated at 50 ng/well, sdA detected with anti-Flag-HRP. In general terms: ELISA stands for enzyme-linked immunosorbent assay.

T1 sequence (P08637 17-208): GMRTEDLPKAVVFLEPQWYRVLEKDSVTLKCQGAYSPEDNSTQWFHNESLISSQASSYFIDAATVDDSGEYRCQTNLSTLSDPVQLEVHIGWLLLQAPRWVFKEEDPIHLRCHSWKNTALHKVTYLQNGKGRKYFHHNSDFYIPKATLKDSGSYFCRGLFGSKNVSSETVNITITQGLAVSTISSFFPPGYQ

B1: sdA1 (human single domain antibody targeting CD16A) (VHH)
VHH: EVQLVESGGGLVQPGGSLRLSCAASGFTFSNYGMSWVRQAPGKGLEWIGSIYYSGGSTNYNPSLKGSLVISRDNSKNTLYLQMNSLAEDTATYYCARESIDYWGQGTLVTVSS
notes: Human VH single domain (VH3-23 scaffold), not camelid; Purified by Ni-NTA and detected with anti-Flag-HRP, so His and Flag tags were present; also called sdAl; D6
Usually EC50 stands for the concentration that produces a half-maximal response. With B1, the EC50 came out at 0.1 nM.

B2: sdA2 (human single domain antibody targeting CD16A) (VHH)
VHH: EVQLVESGGGLVQPGGSLRLSCAASGFTFSSYGMSWVRQAPGKGLEWIGEVNHSGGSTNYNPSLKGSFVISRDNSKNTLYLQMNSLAEDTAVYYCARVGSFDFWGQGTLVTVSS
notes: Human VH single domain; His and Flag tags are implied (Ni-NTA, anti-Flag-HRP); also called E11; El 1
As to B2, the EC50 amounted to 0.3 nM.

The values above are taken from patent WO2018039626A1 (dated 2018).
